# Results: patent US20100093076A1, “SOLUBLE IL-27 RECEPTOR” (priority 2006, published 2010)
# Legend:
# Type in all cases: cell-based
# huIL-27 [1] = molecular target: T1, huIL-27 (Homo sapiens, UniProt Q14213+Q8NEV9); experiment: Phospho-STAT3 (BIO-PLEX) neutralization of IL-27 by soluble receptors, mouse spleens; conditions: ligand huIL-27 at EC90 (2 nM)
# T1 construct: purchased R&D Systems
# T1 sequence (Q8NEV9 29-243): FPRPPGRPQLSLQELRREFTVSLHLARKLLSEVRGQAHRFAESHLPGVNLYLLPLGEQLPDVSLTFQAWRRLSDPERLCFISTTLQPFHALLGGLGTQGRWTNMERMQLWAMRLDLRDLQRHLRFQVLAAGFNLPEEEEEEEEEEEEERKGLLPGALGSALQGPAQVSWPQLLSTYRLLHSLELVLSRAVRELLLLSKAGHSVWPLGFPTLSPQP
# T1 sequence (Q14213 21-229): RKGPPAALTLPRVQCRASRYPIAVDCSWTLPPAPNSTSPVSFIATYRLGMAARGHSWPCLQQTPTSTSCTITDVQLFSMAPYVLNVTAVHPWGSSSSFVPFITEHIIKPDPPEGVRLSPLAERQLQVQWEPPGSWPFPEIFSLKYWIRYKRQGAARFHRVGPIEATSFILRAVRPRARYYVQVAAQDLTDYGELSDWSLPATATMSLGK
# Source text: (§1) Whole mouse spleens were harvested from C57 B1/6 mice and washed two times with 1×PBS before being plated out at 2×10^5 cells/well in assay media (RPMI 1640 plus 10% fetal bovine serum) in 96-well, round-bottom tissue culture plates. Total human PBMC (peripheral blood mononuclear cells) were thawed from a frozen vial collected from a leukapherisis donation and washed two times with 1×PBS before being plated out at 10^6 cells/well in assay media in 96-well, round-bottom tissue culture plates. […] Following pre-incubation, treatments were added to the plates containing the cells and incubated together at 37° C. for 15 minutes.
# (§2) Following incubation, cells were washed with ice-cold wash buffer (BIO-PLEX Cell Lysis Kit, BIO-RAD Laboratories, Hercules, Calif.) and put on ice to stop the reaction according to manufacturer's instructions. […]
# (§3) Capture beads (BIO-PLEX Phospho-Stat3 Assay, BIO-RAD Laboratories) were combined with 50 μL of 1:1 diluted lysates and added to a 96-well filter plate according to manufacture's instructions (BIO-PLEX Phosphoprotein Detection Kit, BIO-RAD Laboratories). […] After the final wash, beads were resuspended in 125 μL/well of bead suspension buffer, shaken for 30 seconds, and read on an array reader (BIO-PLEX, BIO-RAD Laboratories) according to the manufacture's instructions. Data were analyzed using analytical software (BIO-PLEX MANAGER 3.0, BIO-RAD Laboratories). […]
# muIL-27 [2] = molecular target: T2, muIL-27 (Mus musculus, UniProt O35228+Q8K3I6); experiment: as above; conditions: ligand muIL-27 at EC90 (0.2 nM)
# T2 construct: purchased R&D Systems
# T2 sequence (Q8K3I6 29-234): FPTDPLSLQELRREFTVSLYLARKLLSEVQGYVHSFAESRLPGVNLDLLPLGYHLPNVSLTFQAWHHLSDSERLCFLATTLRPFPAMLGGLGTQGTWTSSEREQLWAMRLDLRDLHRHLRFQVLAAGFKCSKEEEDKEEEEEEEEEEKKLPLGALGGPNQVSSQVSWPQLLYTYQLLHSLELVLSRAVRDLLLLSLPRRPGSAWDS
# T2 sequence (O35228 19-228): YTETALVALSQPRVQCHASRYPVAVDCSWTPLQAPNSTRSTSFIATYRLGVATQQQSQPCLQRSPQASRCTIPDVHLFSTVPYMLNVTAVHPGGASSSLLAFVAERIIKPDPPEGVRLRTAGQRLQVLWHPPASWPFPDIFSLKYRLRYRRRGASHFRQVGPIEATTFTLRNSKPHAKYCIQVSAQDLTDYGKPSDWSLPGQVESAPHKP
# Source text: as §1, §2, §3
# huIL-27 [3] = molecular target: T1, huIL-27; experiment: Phospho-STAT3 (BIO-PLEX) neutralization of IL-27 by soluble receptors, total human PBMCs; conditions: ligand huIL-27 at EC90 (2 nM)
# Source text: as §1, §2, §3
# muIL-27 [4] = molecular target: T2, muIL-27; experiment: as above; conditions: ligand muIL-27 at EC90 (2 nM)
# Source text: as §1, §2, §3
substance,measurement,setting,value
"human IL-27RA-Fc5: Extracellular domain of human IL27RA (amino acids 1 to 512 of SEQ ID NO:3) fused to Fc5, effector minus human gamma1 Fc; SEQ ID NO:16",IC50,huIL-27 [1],0.32 nM
same,IC50,muIL-27 [2],0.14 nM
same,IC50,huIL-27 [3],0.95 nM
same,IC50,muIL-27 [4],2.97 nM
